# Measured values taken from patent publication US20240417436A1 (BRIGHT PEAK THERAPEUTICS, published 2024).
# Bridges are numbered along the chain shown (N, C = ends). Primed or numbered codes have the meaning given here. [ ]: non-standard residue; d: D form. cleavable peptide, 4x polyethylene glycol = not defined here; Ygp = O-(8x polyethylene glycol-amino)-tyrosine; Yn3 = O-(9x polyethylene glycol-azido)-tyrosine; 4x polyethylene glycol = not defined here; PEG16′ = 16x polyethylene glycol; hSer = N[C@@H](CCO)C(=O)O; Nle = CCCC[C@H](N)C(=O)O
# T1: IL-2 receptor βγ complex on pan T cells (human, UniProt P14784 27-551; P31785 23-369)
# T1 sequence (looked up) 1: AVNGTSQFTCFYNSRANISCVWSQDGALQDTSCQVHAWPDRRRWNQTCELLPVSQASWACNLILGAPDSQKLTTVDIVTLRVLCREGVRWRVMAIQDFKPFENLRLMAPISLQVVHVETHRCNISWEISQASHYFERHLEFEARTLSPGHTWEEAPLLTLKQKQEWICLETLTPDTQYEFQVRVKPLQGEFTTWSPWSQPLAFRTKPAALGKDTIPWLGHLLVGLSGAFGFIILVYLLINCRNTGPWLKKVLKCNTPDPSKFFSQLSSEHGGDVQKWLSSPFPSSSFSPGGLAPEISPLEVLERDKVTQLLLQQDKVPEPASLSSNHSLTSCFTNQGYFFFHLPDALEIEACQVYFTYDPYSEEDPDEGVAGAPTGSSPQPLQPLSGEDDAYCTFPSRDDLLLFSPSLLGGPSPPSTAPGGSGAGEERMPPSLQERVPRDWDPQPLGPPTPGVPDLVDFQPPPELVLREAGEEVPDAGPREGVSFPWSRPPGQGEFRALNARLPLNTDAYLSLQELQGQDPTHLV
# T1 sequence (looked up) 2: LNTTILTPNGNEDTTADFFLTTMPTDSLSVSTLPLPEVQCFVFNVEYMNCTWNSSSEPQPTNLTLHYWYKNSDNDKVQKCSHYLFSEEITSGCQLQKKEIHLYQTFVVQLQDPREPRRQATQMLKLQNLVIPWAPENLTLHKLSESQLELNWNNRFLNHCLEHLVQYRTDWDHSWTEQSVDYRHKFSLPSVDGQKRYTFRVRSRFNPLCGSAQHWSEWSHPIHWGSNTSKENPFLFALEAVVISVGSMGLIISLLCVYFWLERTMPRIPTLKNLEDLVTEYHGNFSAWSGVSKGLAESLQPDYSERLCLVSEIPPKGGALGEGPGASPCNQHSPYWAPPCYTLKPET
# B1: CMP-156 (ligand)
# chain: APTSSSTKKTQLQLEHLLEDLQ[Nle]ILNGINNYKNPKLTR[Nle]L[hSer][Yn3]KF[Ygp][Nle]PKKATELKHLQCLEEELKPLEEVL[hSer]LAQSKNFHLRPRDLISNINVIVLELKGSETTF[hSer]CEYADETATIVEFLNRWITFSQSIISTLT
# modifications: linker N-19 via cleavable peptide, 4x polyethylene glycol; not fully specified; reading uncertain
# B2: CMP-158 (ligand)
# chain: APTSSSTKKTQLQLEHLLLDLE[Nle]ILNGINNYKNPKLTR[Nle]L[hSer][Yn3]KF[Ygp][Nle]PKKATELKHLQCLEEELKPLEEVL[hSer]LAQSKNFHLRPRDLISNINVIVLELKGSETTF[hSer]CEYADETATIVEFLNRWITFSQSIISTLT
# modifications: linker N-22 via cleavable peptide, 4x polyethylene glycol; not fully specified; reading uncertain
# B3: CMP-156, MMP2 cleaved (ligand)
# chain: APTSSSTKKTQLQLEHLLEDLQ[Nle]ILNGINNYKNPKLTR[Nle]L[hSer][Yn3]KF[Ygp][Nle]PKKATELKHLQCLEEELKPLEEVL[hSer]LAQSKNFHLRPRDLISNINVIVLELKGSETTF[hSer]CEYADETATIVEFLNRWITFSQSIISTLT
# modifications: also: MMP2-cleaved cleavable peptide, macrocycle opened, cut site not given here, remnants on Glu19 and N-terminus unspecified
# B4: CMP-158, MMP2 cleaved (ligand)
# chain: APTSSSTKKTQLQLEHLLLDLE[Nle]ILNGINNYKNPKLTR[Nle]L[hSer][Yn3]KF[Ygp][Nle]PKKATELKHLQCLEEELKPLEEVL[hSer]LAQSKNFHLRPRDLISNINVIVLELKGSETTF[hSer]CEYADETATIVEFLNRWITFSQSIISTLT
# modifications: also: MMP2-cleaved cleavable peptide, macrocycle opened, cut site not given here, remnants on Glu22 and N-terminus unspecified
# B5: CMP-154, MMP2 cleaved (ligand)
# chain: PLGLAGAPTSSSTKKTQLQLEHLLLDLQ[Nle]ILNGIENYKNPKLTR[Nle]L[hSer][Yn3]KF[Ygp][Nle]PKKATELKHLQCLEEELKPLEEVL[hSer]LAQSKNFHLRPRDLISNINVIVLELKGSETTF[hSer]CEYADETATIVEFLNRWITFSQSIISTLT
# modifications: also: macrocycle (9x PEG linker between residue 1 and Glu35 side chain) opened by MMP2 cleavage within PLGLAG, cut site not given here
# B6: CMP-155, MMP2 cleaved (ligand)
# chain: APTSSSTKKTQLQLEHLLLDLQ[Nle]ILNGIENYKNPKLTR[Nle]L[hSer][Yn3]KF[Ygp][Nle]PKKATELKHLQCLEEELKPLEEVL[hSer]LAQSKNFHLRPRDLISNINVIVLELKGSETTF[hSer]CEYADETATIVEFLNRWITFSQSIISTLT
# modifications: also: MMP2-cleaved cleavable peptide, macrocycle opened, cut site not given here, remnants on Glu29 and N-terminus unspecified
# B7: CMP-154 (ligand)
# chain: PLGLAGAPTSSSTKKTQLQLEHLLLDLQ[Nle]ILNGIENYKNPKLTR[Nle]L[hSer][Yn3]KF[Ygp][Nle]PKKATELKHLQCLEEELKPLEEVL[hSer]LAQSKNFHLRPRDLISNINVIVLELKGSETTF[hSer]CEYADETATIVEFLNRWITFSQSIISTLT
# modifications: linker N-35 via 9x polyethylene glycol
# B8: CMP-157, MMP2 cleaved (ligand)
# chain: PLGLAGAPTSSSTKKTQLQLEHLLEDLQ[Nle]ILNGINNYKNPKLTR[Nle]L[hSer][Yn3]KF[Ygp][Nle]PKKATELKHLQCLEEELKPLEEVL[hSer]LAQSKNFHLRPRDLISNINVIVLELKGSETTF[hSer]CEYADETATIVEFLNRWITFSQSIISTLT
# modifications: also: macrocycle (4x PEG linker between residue 1 and Glu25 side chain) opened by MMP2 cleavage within PLGLAG, cut site not given here
# B9: CMP-139, MMP2 cleaved (ligand)
# chain: [PEG16′]APTSSSTKKTQLQLEHLLLDLQ[Nle]ILNGIE(PEG16′)NYKNPKLTR[Nle]L[hSer][Yn3]KF[Ygp][Nle]PKKATELKHLQCLEEELKPLEEVL[hSer]LAQSKNFHLRPRDLISNINVIVLELKGSETTF[hSer]CEYADETATIVEFLNRWITFSQSIISTLT
# modifications: numbers in words are those of the source; ends and bridges not checked; also: cleavable peptide cut by MMP2, macrocycle opened, cut site not given here
# B10: CMP-151, MMP2 cleaved (ligand)
# chain: APTSSSTKKTQLQLEHLLLDLQKILNGINNYKNPKLTR[Nle]L[hSer][Yn3]KF[Ygp][Nle]PKKATELKHLQCLEEELKPLEEVL[hSer]LAQSKNFHLRPRDLISNINVIVLELKGSETTF[hSer]CEYADETATIVEFLNRWITFSQSIISTLT
# modifications: disulfide 58-105; also: MMP2-cleaved cleavable peptide, macrocycle opened, cut site not given here, remnants on Lys23 and Ala1 N-terminus unspecified
# B11: CMP-152 (ligand)
# chain: PLGLAGAPTSSSTKKTQLQLEHLLLDLQ[Nle]ILNGINNYKNPKLTR[Nle]L[hSer][Yn3]KF[Ygp][Nle]PKKATELKHLQCLEEELKPLEEVL[hSer]LAQSKNFHLRPRDLISNINVIVLELKGSETTF[hSer]CEYADETATIVEFLNRWITFSQSIISTLT
# modifications: linker N-38 via 1,5‑pentanedioic acid‑9x polyethylene glycol
# B12: CMP-152, MMP2 cleaved (ligand)
# chain: PLGLAGAPTSSSTKKTQLQLEHLLLDLQ[Nle]ILNGINNYKNPKLTR[Nle]L[hSer][Yn3]KF[Ygp][Nle]PKKATELKHLQCLEEELKPLEEVL[hSer]LAQSKNFHLRPRDLISNINVIVLELKGSETTF[hSer]CEYADETATIVEFLNRWITFSQSIISTLT
# modifications: also: macrocycle (glutaric acid-9x PEG linker between residue 1 and Lys38 side chain) opened by MMP2 cleavage within PLGLAG, cut site not given here
# B13: CMP-157 (ligand)
# chain: PLGLAGAPTSSSTKKTQLQLEHLLEDLQ[Nle]ILNGINNYKNPKLTR[Nle]L[hSer][Yn3]KF[Ygp][Nle]PKKATELKHLQCLEEELKPLEEVL[hSer]LAQSKNFHLRPRDLISNINVIVLELKGSETTF[hSer]CEYADETATIVEFLNRWITFSQSIISTLT
# modifications: linker N-25 via 4x polyethylene glycol; reading uncertain
# Biological target: T1, IL-2 receptor βγ complex on pan T cells
# Test: cell-based or functional assay
"Average EC50, pSTAT5 assay in pan T cells, intact molecule [nM]","Average EC50, pSTAT5 assay in pan T cells, MMP2 cleaved molecule [nM]",Binder
86,–,B1
36.6,–,B2
–,21.3,B3
–,1.95,B4
–,4.2,B5
–,2.9,B6
24.7,–,B7
–,10,B8
–,3.61,B9
–,1.81,B10
16.1,–,B11
–,2.95,B12
54.5,–,B13
